Test results as given in PMC7820495.

Target: GST-SVIP (Drosophila SVIP, CG32039) (Drosophila) (UniProt Q8IQC6)
Test: pull-down; in vitro binding titration assay of GST-SVIP with MBP-VCP wild type and disease-relevant mutants; binding curves and affinities in Fig. 7b-e

Chain of GST-SVIP (Drosophila SVIP, CG32039) (Drosophila) (Q8IQC6 entry or part of it): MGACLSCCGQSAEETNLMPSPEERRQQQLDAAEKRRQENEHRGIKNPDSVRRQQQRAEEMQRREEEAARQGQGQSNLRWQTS

## MBP-VCP^P134L (Drosophila VCP) (from UniProt Q7KN62 1-801) (domain or fragment)
  fold reduction of SVIP–VCP affinity against wild type: > 30 fold
